Data taken from PMC4570671, “A Novel Aldo-Keto Reductase (AKR17A1) of Anabaena sp. PCC 7120 Degrades the Rice Field Herbicide Butachlor and Confers Tolerance to Abiotic Stresses in E. coli” (PLoS ONE, 2015).

How the values were obtained:
Assay in all cases: purified protein
Details in all cases: 0.12 mM NADPH, 50 mM potassium phosphate pH 7.4, 10 mM 2-mercaptoethanol, 37°C
CC(=O)C=O = tested on: CC(=O)C=O
[1] = tested on: CCCCOCN(C(=O)CCl)c1c(CC)cccc1CC
CCOC(=O)C(C)=O = tested on: CCOC(=O)C(C)=O
O=C1Nc2ccccc2C1=O = tested on: O=C1Nc2ccccc2C1=O
O=Cc1ccccc1[N+](=O)[O-] = tested on: O=Cc1ccccc1[N+](=O)[O-]
O=Cc1ccccc1 = tested on: O=Cc1ccccc1

In the case of “AKR17A1 (All2316) (Nostoc sp. PCC 7120 = FACHB-418)”, the Km (CC(=O)C=O) is reported as 4.164 (0.973) mM, the kcat (CC(=O)C=O) is reported as 1.6 s⁻¹ and the kcat/Km (CC(=O)C=O) is reported as 383 M⁻¹ s⁻¹. For the same substance, the Km [1] was 0.548 (0.190) mM, the kcat [1] was 2.11 s⁻¹ and the kcat/Km [1] was 3840 M⁻¹ s⁻¹. The Km (CCOC(=O)C(C)=O) was 6.213 (2.214) mM, the kcat (CCOC(=O)C(C)=O) was 1.43 s⁻¹ and the kcat/Km (CCOC(=O)C(C)=O) was 228 M⁻¹ s⁻¹. For the same substance, the Km (O=C1Nc2ccccc2C1=O) was 0.011 (0.005) mM, the kcat (O=C1Nc2ccccc2C1=O) was 1.58 s⁻¹ and the kcat/Km (O=C1Nc2ccccc2C1=O) was 136000 M⁻¹ s⁻¹. For the same substance, the Km (O=Cc1ccccc1[N+](=O)[O-]) was 0.014 (0.002) mM, the kcat (O=Cc1ccccc1[N+](=O)[O-]) was 1.59 s⁻¹ and the kcat/Km (O=Cc1ccccc1[N+](=O)[O-]) was 114000 M⁻¹ s⁻¹. For the same substance, the Km (O=Cc1ccccc1) was 3.740 (1.098) mM, the kcat (O=Cc1ccccc1) was 1.51 s⁻¹ and the kcat/Km (O=Cc1ccccc1) was 404 M⁻¹ s⁻¹.
